Assay results from patent US20230265151A1, “GIP/GLP1 CO-AGONIST COMPOUNDS” (priority 2020, published 2023).
Where a chain is given by its changes, count along the chain named.

T1: human glucose-dependent insulinotropic polypeptide (GIP) receptor (human, UniProt P48546 22-466)
T1 sequence (looked up): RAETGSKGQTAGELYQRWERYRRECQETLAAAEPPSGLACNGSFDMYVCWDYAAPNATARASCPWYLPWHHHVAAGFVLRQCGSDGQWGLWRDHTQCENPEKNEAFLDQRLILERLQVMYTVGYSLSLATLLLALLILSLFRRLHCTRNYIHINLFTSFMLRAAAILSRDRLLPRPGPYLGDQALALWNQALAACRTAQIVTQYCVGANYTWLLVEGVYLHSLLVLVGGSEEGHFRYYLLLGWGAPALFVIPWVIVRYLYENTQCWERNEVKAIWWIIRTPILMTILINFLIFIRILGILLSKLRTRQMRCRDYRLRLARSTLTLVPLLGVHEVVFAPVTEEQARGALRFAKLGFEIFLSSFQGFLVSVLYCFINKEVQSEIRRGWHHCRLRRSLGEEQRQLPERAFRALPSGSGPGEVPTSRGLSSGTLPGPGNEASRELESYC

B1: Example 277 (peptide)
peptide: YXEGTXTSDXSIXLDXKAQXKFIXXLIEGGPSSGAPPPS
modifications: Aib2, αMeF(2F)6, OMeY10, αMeL13, Orn16, K17(Z), Aib20, K21(Z), D-Glu24, αMeY25, C-terminal NH2; Z = AEEA2-(γ-Glu)-(10-(4-carboxyphenoxy)decanoyl)
B2: Example 278 (peptide)
peptide: B1 peptide with K21E, E28K
modifications: Aib2, αMeF(2F)6, OMeY10, αMeL13, Orn16, K17(Z), Aib20, D-Glu24, αMeY25, K28(Z), C-terminal NH2; Z = AEEA2-(γ-Glu)-(10-(4-carboxyphenoxy)decanoyl)
B3: Example 279 (peptide)
peptide: B1 peptide with K17I, K21E, X24K, E28K
modifications: Aib2, αMeF(2F)6, OMeY10, αMeL13, Orn16, Aib20, K24(Z), αMeY25, K28(Z), C-terminal NH2; Z = AEEA2-(γ-Glu)-(10-(4-carboxyphenoxy)decanoyl)
B4: Example 280 (peptide)
peptide: B1 peptide with K17I, E28K
modifications: Aib2, αMeF(2F)6, OMeY10, αMeL13, Orn16, Aib20, K21(Z), D-Glu24, αMeY25, K28(Z), C-terminal NH2; Z = AEEA2-(γ-Glu)-(10-(4-carboxyphenoxy)decanoyl)
B5: Example 281 (peptide)
peptide: B1 peptide
modifications: Aib2, αMeF(2F)6, 2Nal10, αMeL13, Orn16, K17(Z), Aib20, K21(Z), D-Glu24, αMeY25, C-terminal NH2; Z = AEEA2-(γ-Glu)-(10-(4-carboxyphenoxy)decanoyl)
B6: Example 282 (peptide)
peptide: B1 peptide with K21E, E28K
modifications: Aib2, αMeF(2F)6, 2Nal10, αMeL13, Orn16, K17(Z), Aib20, D-Glu24, αMeY25, K28(Z), C-terminal NH2; Z = AEEA2-(γ-Glu)-(10-(4-carboxyphenoxy)decanoyl)
B7: Example 283 (peptide)
peptide: B1 peptide with K17I, K21E, X24K, E28K
modifications: Aib2, αMeF(2F)6, 2Nal10, αMeL13, Orn16, Aib20, K24(Z), αMeY25, K28(Z), C-terminal NH2; Z = AEEA2-(γ-Glu)-(10-(4-carboxyphenoxy)decanoyl)
B8: Example 284 (peptide)
peptide: B1 peptide with K17I, E28K
modifications: Aib2, αMeF(2F)6, 2Nal10, αMeL13, Orn16, Aib20, K21(Z), D-Glu24, αMeY25, K28(Z), C-terminal NH2; Z = AEEA2-(γ-Glu)-(10-(4-carboxyphenoxy)decanoyl)
B9: Example 285 (peptide)
peptide: YXEGTXTSDXSIXLDXKAQXEFIXXLIEGGPSSGAPPPSK
modifications: Aib2, αMeF(2F)6, 4Pal10, αMeL13, Orn16, K17(Z), Aib20, D-Glu24, αMeY25, K40(Z), C-terminal NH2; Z = AEEA2-(γ-Glu)-(11-(4-carboxyphenoxy)undecanoyl)
B10: Example 286 (peptide)
peptide: B1 peptide with K17I, K21E, X24K, E28K
modifications: Aib2, αMeF(2F)6, 4Pal10, αMeL13, Orn16, Aib20, K24(Z), αMeY25, K28(Z), C-terminal NH2; Z = AEEA2-(γ-Glu)-(11-(4-carboxyphenoxy)undecanoyl)
B11: Example 287 (peptide)
peptide: B1 peptide with K17I, E28K
modifications: Aib2, αMeF(2F)6, 4Pal10, αMeL13, Orn16, Aib20, K21(Z), D-Glu24, αMeY25, K28(Z), C-terminal NH2; Z = AEEA2-(γ-Glu)-(11-(4-carboxyphenoxy)undecanoyl)
B12: Example 288 (peptide)
peptide: B9 peptide with K17I, E21K
modifications: Aib2, αMeF(2F)6, 4Pal10, αMeL13, Orn16, Aib20, K21(Z), D-Glu24, αMeY25, K40(Z), C-terminal NH2; Z = AEEA2-(γ-Glu)-(11-(4-carboxyphenoxy)undecanoyl)
B13: Example 289 (peptide)
peptide: B1 peptide
modifications: Aib2, αMeF(2F)6, OMeY10, αMeL13, Orn16, K17(Z), Aib20, K21(Z), D-Glu24, αMeY25, C-terminal NH2; Z = AEEA2-(γ-Glu)-CO-(CH2)10-CH3
B14: Example 290 (peptide)
peptide: B1 peptide with K21E, E28K
modifications: Aib2, αMeF(2F)6, OMeY10, αMeL13, Orn16, K17(Z), Aib20, D-Glu24, αMeY25, K28(Z), C-terminal NH2; Z = AEEA2-(γ-Glu)-CO-(CH2)10-CH3
B15: Example 156 (peptide)
peptide: B1 peptide with K21E, P31K
modifications: Aib2, αMeF(2F)6, 4Pal10, αMeL13, Orn16, K17(Z), 4Pal20, D-Glu24, αMeY25, K31(Z), C-terminal NH2; Z = AEEA2-(γ-Glu)-CO-(CH2)12-CO2H
B16: Example 157 (peptide)
peptide: B1 peptide with K21X, P31K
modifications: Aib2, αMeF(2F)6, 4Pal10, αMeL13, Orn16, K17(Z), Aib20, 4Pal21, D-Glu24, αMeY25, K31(Z), C-terminal NH2; Z = AEEA2-(γ-Glu)-CO-(CH2)12-CO2H
B17: Example 158 (peptide)
peptide: B1 peptide with K21E, X24E, P31K
modifications: Aib2, αMeF(2F)6, 4Pal10, αMeL13, Orn16, K17(Z), Aib20, αMeY25, K31(Z), C-terminal NH2; Z = AEEA2-(γ-Glu)-CO-(CH2)12-CO2H

Experiments:
Experiment in all cases: cell-based or functional assay
human glucagon receptor = human glucagon receptor (human, UniProt P47871 26-477)
[1] = molecular target: T1, human glucose-dependent insulinotropic …
[2] = molecular target: human glucagon-like peptide-1 (GLP-1) receptor (human, UniProt P43220 24-463)

Binder | cAMP EC50 (human glucagon receptor) [µM] | cAMP EC50 [1] [nM] | cAMP EC50 [2] [nM] | cAMP Emax [1] [%] | cAMP Emax [2] [%]
B1 | > 9.95 | 0.0176 | 0.225 | – | –
B2 | > 9.95 | 0.0173 | 0.29 | – | –
B3 | > 9.95 | 0.0305 | 0.406 | – | –
B4 | > 9.95 | 0.0229 | 0.346 | – | –
B5 | > 9.95 | 0.0187 | 0.252 | – | –
B6 | > 9.95 | 0.0193 | 0.216 | – | –
B7 | > 9.95 | 0.073 | 1.14 | – | –
B8 | > 9.95 | 0.0389 | 0.505 | – | –
B9 | > 9.95 | 0.0115 | 1.21 | – | –
B10 | > 9.95 | 0.0344 | 0.678 | – | –
B11 | > 9.95 | 0.0189 | 0.563 | – | –
B12 | > 9.95 | 0.0219 | 0.354 | – | –
B13 | > 9.95 | 0.017 | 0.731 | – | –
B14 | > 9.95 | 0.0188 | 0.324 | – | –
B15 | > 9.95 | 0.0422 | 4.6 | – | –
B16 | > 9.95 | 0.0286 | 0.94 | 98.8 | –
B17 | > 9.95 | 0.0204 | 0.448 | 93.4 | 87.2
